Source: patent US9205136B2, “Human aminoacyl-tRNA synthetase polypeptides useful for the regulation of angiogenesis” (THE SCRIPPS RESEARCH INSTITUTE, priority 2000, dated 2015)
Entries after “also recorded” stand apart in the source; their conditions may differ.

Experiments:
[1] = test system: MPs; test: MP tissue factor production (Factor VIIa-dependent Factor Xa formation); format: cell-based, human; details: 1 nM sample protein, 4 hours
Experimental: Cells for the various cytokine assays described were prepared from acid citrate dextrose-treated blood of normal healthy volunteers. Human PMNs were isolated from the blood by centrifugation (700×g) over Histopaque 1077 and 1119 (Sigma). […] This procedure was repeated twice. Human MPs were isolated by centrifugation on Histopaque 1077 (Sigma). The mononuclear fraction was obtained, washed twice in Hanks' balanced salt solution, resuspended in RPMI-1640 medium (Sigma) containing 10% heat-inactivated fetal bovine serum (Sigma), plated in tissue culture flasks, and incubated in a 6% CO2 incubator at 37° C. for 1-2 hours (Kumagai et al., 1979, J. Immunol. Methods 29:17-25). Nonadherent cells were removed by washing the flasks three times with Hanks' balanced salt solution, and adherent cells were harvested by incubation with calcium-magnesium free phosphate-buffered saline containing 2 mM EDTA for 15 minutes at 4° C., followed by extensive washing.
MP tissue factor production was examined following incubation of 10^4 MPs with 1 nM of sample protein for 4 hours. Tissue factor activity was then inferred from measurements of Factor VIIa-dependent Factor Xa formation (Wolfson et al., 1990 J. Chromatogr., 503:277-81). Each determination shown in FIG. 2 represents the mean of four measurements from at least three independent experiments.

[2] = biological target: T1, type B receptor (Homo sapiens, UniProt P25025); test: Binding to RBL2H3 cells transfected with IL-8 receptor type B; details: transfected RBL2H3 rat basophilic leukemia cells; read-out: Kd on cells expressing the type B receptor
T1 construct: expressed in transfected cells; host or cells: RBL2H3 rat basophilic leukemia cells
T1 sequence (P25025 1-360): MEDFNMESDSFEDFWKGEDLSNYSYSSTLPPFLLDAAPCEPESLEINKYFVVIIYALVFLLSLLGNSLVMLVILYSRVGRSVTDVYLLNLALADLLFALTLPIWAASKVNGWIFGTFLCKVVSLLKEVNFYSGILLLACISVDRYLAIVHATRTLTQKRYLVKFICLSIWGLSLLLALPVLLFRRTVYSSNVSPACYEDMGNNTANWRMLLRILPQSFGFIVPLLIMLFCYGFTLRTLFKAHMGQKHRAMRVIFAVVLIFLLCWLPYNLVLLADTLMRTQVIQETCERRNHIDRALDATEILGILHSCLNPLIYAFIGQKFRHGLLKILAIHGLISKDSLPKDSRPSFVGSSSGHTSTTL
Experimental: Following incubation, cells were separated from unbound radioactivity as described herein.
Untransfected RBL2H3 cells express neither the type A nor type B receptors.

[3] = test system: PMNs; test: 125I-human mini TyrRS binding and competition assay on PMNs; details: 10 nM 125I-mini TyrRS, 200-fold molar excess of unlabeled ligand, on ice 2 hours
Procedure, shortened: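 Human PMNs (2×10^6) in RPMI-1640 with 20 mM Hepes pH 7.4 and 10 mg/ml BSA were incubated with radioiodinated mini TyrRS. Bound and free label were separated by centrifugation through a 10% sucrose/PBS cushion, and cell-associated radioactivity was counted by scintillation.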

[4] = test system: human umbilical vein endothelial cells (HUVECs); test: HUVEC migration assay (modified Boyden chamber); format: cell-based; details: 50 nM TyrRS molecule or 0.5 nM VEGF165, 6 hours
Experimental: In contrast, α-chemokines lacking the ELR motif act as angiostatic factors (id.). In order to evaluate the angiogenic activity of TyrRS, which contains the ELR motif, human full-length TyrRS and human mini TyrRS were first examined for their ability to induce endothelial cell migration. Such angiogenic assays were performed using human umbilical vein endothelial cells (HUVECs) (Clonetics, Walkersville, Md.). Cells were maintained in EGM-2® BULLETKIT® medium (Clonetics) in an atmosphere of 6% CO2 at 37° C. according to the supplier's instructions.
Cell migration assays were performed using the modified Boyden chamber (6.5 mm Transwells) with polycarbonate membranes (8.0 μm pore size) (Costar Corp., Cambridge, Mass.) (Masood et al., 1999, Blood 93:1038-44). Wells were coated overnight with 25 μg/mL human fibronectin (Biosource International, Camarillo, Calif.) in PBS and then allowed to air-dry. HUVECs were suspended in Dulbecco's modified Eagle's medium (DMEM) (Gibco-BRL, Gaithersburg, Md.) containing 0.1% BSA (Sigma) and 2×10^5 cells per well were added to the upper chamber. The chemotactic stimulus (50 nM of a given TyrRS molecule or 0.5 nM of human vascular endothelial growth factor-165 (VEGF165) (Biosource International, Camarillo, Calif.)) was placed in the lower chamber, and the cells were allowed to migrate for 6 hours at 37° C. in a 6% CO2 incubator. After incubation, non-migrant cells were removed from the upper face of the Transwell membrane with a cotton swab and migrant cells, those attached to the lower face, were fixed in methanol and visualized with the HEMACOLOR® stain set (EM Diagnostic Systems, Gibbstown, N.J.). Migrating cells were counted in high-power fields (HPFs). HUVECs were suspended in media with the inhibitor for 30 minutes before placement in the chamber. Each determination shown in FIG. 16 represents the average of nine HPF measurements.

[5] = test system: PMNs; test: PMN chemotaxis assay (ChemoTX microchemotaxis chamber); format: cell-based, human; details: for PMN chemotaxis (PMN migration): sample proteins 1 nM, 45 min
Procedure, shortened: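 Human PMNs were isolated from healthy-donor blood over Histopaque 1077/1119. 10^4 cells were placed in the upper compartment of a ChemoTX microchemotaxis chamber, with sample protein at 1 nM in the lower compartment. After 45 min, migrated cells were counted as the mean of nine HPFs.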

B1: mini TyrRS: truncated TyrRS, residues 1-364 of full-length TyrRS, amino-terminal catalytic domain (protein)
chain: MGDAPSPEEKLHLITRNLQEVLGEEKLKEILKERELKIYWGTATTGKPHVAYFVPMSKIADFLKAGCEVTILFADLHAYLDNMKAPWELLELRVSYYENVIKAMLESIGVPLEKLKFIKGTDYQLSKEYTLDVYRLSSVVTQHDSKKAGAEVVKQVEHPLLSGLLYPGLQALDEEYLKVDAQFGGIDQRKIFTFAEKYLPALGYSKRVHLMNPMVPGLTGSKMSSSEEESKIDLLDRKEDVKKKLKKAFCEPGNVENNGVLSFIKHVLFPLKSEFVILRDEKWGGNKTYTAYVDLEKDFAAEVVHPGDLKNSVEVALNKLLDPIREKFNTPALKKLASAAYPDPSKQKPMAKGPAKNSEPEEVILEHHHHHH
modifications: His6 tag; Human mini TyrRS in pET20B
notes: truncated TyrRS, residues 1-364 of full-length TyrRS, amino-terminal catalytic domain
[1]
  MP tissue factor production: did not stimulate production
[2]
  Kd: > 0.2 µM
[3]
  inhibition of 125I-mini TyrRS binding to PMNs by unlabeled ligand: inhibited the binding; also recorded: inhibited by the presence of excess amounts of unlabeled mini TyrRS
[4]
  HUVEC chemotaxis: stimulated induction of HUVEC chemotaxis
[5]
  concentration dependence of PMN migration: bell-shaped concentration dependence
  PMN chemotaxis (PMN migration): did induce PMN migration
[5]; listed as human mini TyrRS
  PMN chemotaxis (PMN migration): led to an induction of PMN migration
